{
  "source": "paper PMC5052687",
  "parents": {"B1": {"name": "MCvar1 PfEMP1 CIDRα2.8 domain (residues 576-745, mutant [Plasmodium falciparum] / human CD36 ectodomain (residues 35-439) with C-terminal BAP tag, biotinylated [modified: biotin on the BAP tag (in vitro, BirA ligase); biotin … (parent)", "chain 1": "EDKIMSYNAFFWMWVHDMLIDSIKWRDEHGRCINKDKGKTCIKGCNKKCISFQKWVEQKKTEWGKIKDHFRKQKDIPKDWTHDDFLQTLLMKDLLLEIIQDTYGDANEIKRIEALLEQAGVGGIDFAALAGLYTKGFVAEKDTTIDKLLQHEQKEADKCLKTHTDDTCPP", "chain 2": "QKTIKKQVVLEEGTIAFKNWVKTGTEVYRQFWIFDVQNPQEVMMNSSNIQVKQRGPYTYRVRFLAKENVTQDAEDNTVSFLQPNGAIFEPSLSVGTEADNFTVLNLAVAAASHIYQNQFVQMILNSLINKSKSSMFQVRTLRELLWGYRDPFLSLVPYPVTTTVGLFYPYNNTADGVYKVFNGKDNISKVAIIDTYKGKRNLSYWESHCDMINGTDAASFPPFVEKSQVLQFFSSDICRSIYAVFESDVNLKGIPVYRFVLPSKAFASPVENPDNYCFCTEKIISKNCTSYGVLDISKCKEGRPVYISLPHFLYASPDVSEPIDGLNPNEEEHRTYLDIEPITGFTLQFAKRLQVNLLVKPSEKIQVLKNLKRNYIVPILWLNETGTIGDEKANMFRSQVTGKIN"}},
  "data": [
    {"variants_of": "B1", "assay": "SPR", "conditions": "with human CD36 ectodomain (residues 35-439) with C-terminal BAP tag, plateau of the top sensorgram (highest analyte concentration of the series), concentrations not given, parent: 62, read off a plot", "units": {"response": "RU"}, "values": [
      {"variant": "chain 1 E97A", "response": 40},
      {"variant": "chain 1 Q73A", "response": 27}
    ]}
  ]
}
